# Laboratory results from US20230235090A1 (HARBOUR BIOMED US, published 2023).
# T1: human B7-H4 (human, UniProt Q7Z7D3 25-282)
# T1 construct: whole, on cells; also called VTCN1; SK-BR-3 cell line highly expressing B7-H4
# T1 sequence (looked up): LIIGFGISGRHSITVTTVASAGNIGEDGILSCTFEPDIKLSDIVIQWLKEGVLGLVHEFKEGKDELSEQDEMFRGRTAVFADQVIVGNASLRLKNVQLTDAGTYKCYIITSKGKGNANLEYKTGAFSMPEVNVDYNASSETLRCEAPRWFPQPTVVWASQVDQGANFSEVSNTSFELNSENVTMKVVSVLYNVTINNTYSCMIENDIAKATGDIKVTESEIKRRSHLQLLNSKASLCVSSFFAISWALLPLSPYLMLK
# T2: mouse B7-H4 (mouse, UniProt Q7TSP5 25-257)
# T2 construct: whole, on cells; also called CHO-K1/m B7-H4; CHO-K1/mB7-H4
# T2 sequence (looked up): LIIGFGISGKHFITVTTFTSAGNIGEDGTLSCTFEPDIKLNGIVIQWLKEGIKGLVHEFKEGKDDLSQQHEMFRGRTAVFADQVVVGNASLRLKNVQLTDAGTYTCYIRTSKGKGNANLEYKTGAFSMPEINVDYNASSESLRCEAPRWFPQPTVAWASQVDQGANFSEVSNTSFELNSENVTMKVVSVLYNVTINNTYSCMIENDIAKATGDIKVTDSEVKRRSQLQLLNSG
# T3: cynomolgus monkey B7-H4 (cynomolgus monkey, UniProt A0A2K5U6P5 25-282)
# T3 construct: whole, on cells; also called CHO-K1/cyno B7-H4; CHO-K1/cynoB7H4
# T3 sequence: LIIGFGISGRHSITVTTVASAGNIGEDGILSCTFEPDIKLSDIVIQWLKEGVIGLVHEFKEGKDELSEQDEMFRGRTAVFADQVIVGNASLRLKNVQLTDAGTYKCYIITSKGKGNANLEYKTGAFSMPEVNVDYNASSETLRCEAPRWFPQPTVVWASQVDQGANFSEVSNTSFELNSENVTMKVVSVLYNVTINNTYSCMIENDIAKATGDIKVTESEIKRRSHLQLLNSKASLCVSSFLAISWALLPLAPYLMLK
# Legend:
# human B7-H4 [1] = biological target: T1, human B7-H4; test: FACS, SK-BR-3 cells [A]
# Protocol: (§1) This example is intended to investigate the in vitro binding activity of anti-human B7-H4 H2L2 monoclonal antibody to human/cynomolgus monkey/mouse B7-H4. Antibody binding experiments at the cellular level were conducted using a CHO-K1 cell strain overexpressing cynomolgus monkey B7-H4 (CHO-K1/cyno B7-H4, prepared in-house by Harbour Biomed), a CHO-K1 cell strain overexpressing mouse B7-H4 (CHO-K1/m B7-H4, prepared in-house by Harbour Biomed) and an SK-BR-3 cell line highly expressing human B7-H4 (ATCC® HTB-30). Briefly, the CHO-K1/cyno B7-H4 cells, CHO-K1/m B7-H4 cells or SK-BR-3 cells were digested and resuspended with PBS containing 2% BSA. The cell density was adjusted to 1×10⁶ cells/mL. […] The cells were incubated at 4° C. for 2 h away from light. Thereafter, the cells in each well were rinsed twice with 100 μL of pre-cooled PBS containing 2% BSA, and centrifuged at 500 g at 4° C. for 5 min, and then the supernatant was discarded. […] The plate was incubated away from light at 4° C. for 1 h. The cells in each well were rinsed twice with 100 μL of pre-cooled PBS containing 2% BSA, and centrifuged at 500 g at 4° C. for 5 min, and then the supernatant was discarded. Finally, the cells in each well were resuspended in 200 μL of pre-cooled PBS containing 2% BSA, and the fluorescence signal values were read using an ACEA Novocyte3000 flow cytometer.
# human B7-H4 [2] = biological target: T1, human B7-H4; test: FACS, SKBR3 cells [A]
# mouse B7-H4 = biological target: T2, mouse B7-H4; test: FACS, CHO-K1/m B7H4 cells [C]
# Protocol: as §1
# human B7-H4 [3] = biological target: T1, human B7-H4; test: FACS, MDA-MB-468 cells [A]
# cynomolgus monkey B7-H4 = biological target: T3, cynomolgus monkey B7-H4; test: FACS, CHO-K1/cyno B7H4 cells [B]
# Protocol: as §1
# cynomolgus monkey 4-1BB [4] = biological target: T4, cynomolgus monkey 4-1BB (cynomolgus monkey); test: FACS, CHO-K1/cyno 4-1BB cells [F]
# T4 construct: whole, on cells; also called CHO-K1-cyno 4-1BB; CHO-K1/cyno4-1BB
# Protocol: (§2) This example is intended to investigate the in vitro binding activity of anti-human 4-1BB HCAb and H2L2 monoclonal antibodies to human and cynomolgus monkey 4-1BB. Antibody binding experiments at the cellular level were conducted using a CHO-K1 cell strain overexpressing human 4-1BB (CHO-K1-hu 4-1BB, Genescript) and a CHO-K1 cell strain overexpressing cynomolgus monkey 4-1BB (CHO-K1-cyno 4-1BB, Genescript). Briefly, the CHO-K1-hu 4-1BB and CHO-K1-cyno 4-1BB cells were digested and resuspended in DMEM complete medium, and the cell density was adjusted to 1×10⁶ cells/mL. […] The cells were incubated at 4° C. for 1 h away from light. Thereafter, the cells in each well were rinsed twice with 100 μL of pre-cooled PBS, and centrifuged at 500 g at 4° C. for 5 min, and then the supernatant was discarded. […] The plate was incubated away from light at 4° C. for 30 min. The cells in each well were rinsed twice with 100 μL of pre-cooled PBS, and centrifuged at 500 g at 4° C. for 5 min, and then the supernatant was discarded. Finally, the cells in each well were resuspended in 200 μL of pre-cooled PBS, and the fluorescence signal values were read using a BD FACS CANTOII.
# human 4-1BB [5] = biological target: T5, human 4-1BB (human, UniProt Q07011 24-255); test: FACS, CHO-K1/hu 4-1BB cells [G]
# T5 construct: whole, on cells; also called CD137; TNFRSF9
# T5 sequence (Q07011 24-255): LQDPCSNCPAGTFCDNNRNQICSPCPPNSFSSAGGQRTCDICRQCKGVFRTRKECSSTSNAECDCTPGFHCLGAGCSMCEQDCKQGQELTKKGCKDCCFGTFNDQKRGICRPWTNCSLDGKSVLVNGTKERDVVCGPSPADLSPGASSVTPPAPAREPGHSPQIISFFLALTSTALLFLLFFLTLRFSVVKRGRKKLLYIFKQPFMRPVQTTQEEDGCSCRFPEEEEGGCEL
# Protocol: as §2
# human 4-1BB [6] = biological target: T5, human 4-1BB; test: FACS on CHO-K1-hu 4-1BB cells
# human 4-1BB [7] = biological target: T5, human 4-1BB; test: FACS, CHO-K1/hu 4-1BB cells [A]
# Protocol: as §2
# cynomolgus monkey 4-1BB [8] = biological target: T4, cynomolgus monkey 4-1BB; test: FACS, CHO-K1/cyno 4-1BB cells [A]
# Protocol: as §2
# human 4-1BB [9] = biological target: T5, human 4-1BB; test: FACS, CHO-K1/h4-1BB cells [K]
# Protocol: (§3) Antibody binding experiments at the cellular level were conducted using a CHO-K1 cell strain overexpressing human 4-1BB (CHO-K1/hu 4-1BB, Genscript, #M00538) and a CHO-K1 cell strain overexpressing cynomolgus monkey 4-1BB (CHO-K1/cyno 4-1BB, Genscript, #M00569). Briefly, the CHO-K1-hu 4-1BB and CHO-K1/cyno 4-1BB cells were digested, resuspended in F12K complete medium, and washed once with PBS. The cell density was adjusted to 1×10⁶ cells/mL with PBS. […] The cells were incubated at 4° C. for 1 h away from light. Thereafter, the cells in each well were rinsed twice with 100 μL of pre-cooled PBS, and centrifuged at 500 g at 4° C. for 5 min, and then the supernatant was discarded. […] The plate was incubated away from light at 4° C. for 30 min. The cells in each well were rinsed twice with 100 μL of pre-cooled PBS, and centrifuged at 500 g at 4° C. for 5 min, and then the supernatant was discarded. Finally, the cells in each well were resuspended in 200 μL of pre-cooled PBS, and the fluorescence signal values were read using a BD FACS CANTOII or an ACEA NovoCyte flow cytometer.
# cynomolgus monkey 4-1BB [10] = biological target: T4, cynomolgus monkey 4-1BB; test: FACS, CHO-K1/cyno 4-1BB cells [D]
# Protocol: as §2
# cynomolgus monkey 4-1BB [11] = biological target: T4, cynomolgus monkey 4-1BB; test: FACS, CHO-K1/cyno 4-1BB cells [B]
# Protocol: as §2
# cynomolgus monkey 4-1BB [12] = biological target: T4, cynomolgus monkey 4-1BB; test: FACS, CHO-K1/cyno 4-1BB cells [E]
# Protocol: as §2
# cynomolgus monkey 4-1BB [13] = biological target: T4, cynomolgus monkey 4-1BB; test: FACS, CHO-K1/cyno 4-1BB cells [H]
# Protocol: (§4) Antibody binding experiments at the cellular level were conducted using a CHO-K1 cell strain overexpressing human 4-1BB (CHO-K1-hu 4-1BB, Genescript) and a CHO-K1 cell strain overexpressing cynomolgus monkey 4-1BB (CHO-K1-cyno 4-1BB, Genescript). Briefly, the CHO-K1-hu 4-1BB and CHO-K1-cyno 4-1BB cells were digested and resuspended in DMEM complete medium, and the cell density was adjusted to 1×10⁶ cells/mL. […] The cells were incubated at 4° C. for 1 h away from light. Thereafter, the cells in each well were rinsed twice with 100 μL of pre-cooled PBS, and centrifuged at 500 g at 4° C. for 5 min, and then the supernatant was discarded. […] The plate was incubated away from light at 4° C. for 30 min. The cells in each well were rinsed twice with 100 μL of pre-cooled PBS, and centrifuged at 500 g at 4° C. for 5 min, and then the supernatant was discarded. Finally, the cells in each well were resuspended in 200 μL of pre-cooled PBS, and the fluorescence signal values were read using a BD FACS CANTOII.
# cynomolgus monkey 4-1BB [14] = biological target: T4, cynomolgus monkey 4-1BB; test: FACS, CHO-K1/cyno 4-1BB cells [C]
# Protocol: as §2
# human 4-1BB [15] = biological target: T5, human 4-1BB; test: FACS, CHO-K1/hu 4-1BB cells [F]
# Protocol: as §2
# cynomolgus monkey 4-1BB [16] = biological target: T4, cynomolgus monkey 4-1BB; test: FACS, CHO-K1/cyno 4-1BB cells [G]
# Protocol: as §4
# human 4-1BB [17] = biological target: T5, human 4-1BB; test: FACS, CHO-K1/hu 4-1BB cells [H]
# Protocol: as §4
# human 4-1BB [18] = biological target: T5, human 4-1BB; test: FACS, CHO-K1/h4-1BB cells [L]
# Protocol: as §3
# cynomolgus monkey 4-1BB [19] = biological target: T4, cynomolgus monkey 4-1BB; test: FACS, CHO-K1/cyno-4-1BB cells [B]
# Protocol: (§5) Antibody binding experiments at the cellular level were conducted using a CHO-K1 cell strain overexpressing human 4-1BB (CHO-K1/h4-1BB, Gensript, #M00538), a CHO-K1 cell strain expressing cynomolgus monkey 4-1BB (CHO-K1/cyno4-1BB, Genscript, #M00569) and a CHO-K1 cell strain overexpressing mouse 4-1BB (CHO-K1/m4-1BB, Genscript, #M00568). Briefly, the CHO-K1/h4-1BB cells, CHO-K1/cyno 4-1BB cells and CHO-K1/m 4-1BB cells were digested and resuspended with PBS containing 2% FBS. The cell density was adjusted to 1×10⁶ cells/mL. […] The cells were incubated at 4° C. for 2 h away from light. Thereafter, the cells in each well were rinsed twice with 100 μL of a pre-cooled FACS buffer, PBS containing 2% FBS, and centrifuged at 500 g at 4° C. for 5 min, and then the supernatant was discarded. […] The plate was incubated away from light at 4° C. for 1 h. The cells in each well were rinsed twice with 100 μL of pre-cooled FACS buffer, and centrifuged at 500 g at 4° C. for 5 min, and then the supernatant was discarded. Finally, the cells in each well were resuspended in 200 μL of pre-cooled FACS buffer, and the fluorescence signal values were read using an ACEA Novocyte3000 flow cytometer.
# human 4-1BB [20] = biological target: T5, human 4-1BB; test: FACS, CHO-K1/h4-1BB cells [A]
# Protocol: as §5
# human 4-1BB [21] = biological target: T5, human 4-1BB; test: FACS, CHO-K1/hu 4-1BB cells [I]
# Protocol: as §2
binder,measurement,setting,value
"control antibody 1 (PR000157) (antibody, V domains shown, also called Positive control 1; 1D11.v1.9varC2) VH: EVQLVQSGAEVKKPGASVKVSCKASGYTFTSYWIGWVRQAPGQGLEWIGDIYPGGGYTNYNEKFKGRVTITRDTSTSTAYLELSSLRSEDTAVYYCARLAGSSYRGAMDSWGQGTLVTVSS VL: DIQMTQSPSSLSASVGDRVTITCKASQGFNKYVAWYQQKPGKAPKLLIYYTSTLQPGVPSRFSGSGSGRDYTLTISSLQPEDFATYYCLQYGDLLYAFGQGTKVEIKR",EC50,human B7-H4 [1],1.2 nM
same,Maximum MFI,human B7-H4 [1],266000 MFI
same,EC50 (read off the curve),human B7-H4 [2],~4 nM
same,EC50,mouse B7-H4,1.73 nM
same,Maximum MFI,mouse B7-H4,1.75e+06 MFI
same,EC50 (read off the curve),human B7-H4 [3],~6 nM
same,EC50,cynomolgus monkey B7-H4,2.1 nM
same,Maximum MFI,cynomolgus monkey B7-H4,1.99e+06 MFI
"PR001842 (antibody, human IgG1, V domains shown, anti-4-1BB HCAb, human IgG1 Fc) VH: EVQLLESGGGLVQPGGSLRLSCAASGFTFSSYAMSWGRQAPGKGLEWVSAISGSGGSTYYADSVKGRFTISRDNSKNTLYLHMNSLRAEDTAVYYCAKEKVATTGDYYYDMDVWGQGTTVTVSS",EC50,cynomolgus monkey 4-1BB [4],2.29 nM
same,Maximum MFI,cynomolgus monkey 4-1BB [4],9660 MFI
same,EC50,human 4-1BB [5],0.537 nM
"PR007381 (antibody, human IgG1, V domains shown, anti-4-1BB HCAb, human IgG1 Fc; also called germline variant of PR004469) VH: EVQLLESGGGLVQPGGSLRLSCAASGFTFSNYAMSWVRQAPGKGLEWVSSIDASGGDTYYADSVKGRFTISRDNSKNTLYLQMNSLRAEDTAVYYCAKEGSHGTDDSHYDVDVWGQGTTVTVSS",binding result,human 4-1BB [6],binds
"PR001760 (antibody, human IgG1, V domains shown, anti-4-1BB HCAb, human IgG1 Fc) VH: EVQLVESGGGVVQPGGSLRLSCAASGFTFSNYAMTWVRQAPEKGLEWVSSISGSGVSTYYADSVKGRFTISRDNSKNTLYLQMTRLTAEDTAVYFCAKEGSSETDDHYYNVDVWGQGTTVTVSS",EC50,human 4-1BB [7],0.198 nM
same,Maximum MFI,human 4-1BB [7],1740 MFI
same,EC50,cynomolgus monkey 4-1BB [8],0.443 nM
same,Maximum MFI,cynomolgus monkey 4-1BB [8],17400 MFI
same,EC50,human 4-1BB [9],3.76 nM
same,Maximum MFI,human 4-1BB [9],83600 MFI
"Utomilumab analog (PR000483) (antibody, human IgG2, lambda, V domains shown, anti-4-1BB control antibody; also called Tab) VH: EVQLVQSGAEVKKPGESLRISCKGSGYSFSTYWISWVRQMPGKGLEWMGKIYPGDSYTNYSPSFQGQVTISADKSISTAYLQWSSLKASDTAMYYCARGYGIFDYWGQGTLVTVSS VL: SYELTQPPSVSVSPGQTASITCSGDNIGDQYAHWYQQKPGQSPVLVIYQDKNRPSGIPERFSGSNSGNTATLTISGTQAMDEADYYCATYTGFGSLAVFGGGTKLTVLG",EC50,cynomolgus monkey 4-1BB [4],0.485 nM
same,Maximum MFI,cynomolgus monkey 4-1BB [4],11000 MFI
same,EC50,cynomolgus monkey 4-1BB [10],3.46 nM
same,Maximum MFI,cynomolgus monkey 4-1BB [10],55500 MFI
same,EC50,cynomolgus monkey 4-1BB [8],0.485 nM
same,Maximum MFI,cynomolgus monkey 4-1BB [8],11000 MFI
same,EC50,cynomolgus monkey 4-1BB [11],3.46 nM
same,Maximum MFI,cynomolgus monkey 4-1BB [11],55500 MFI
same,EC50,cynomolgus monkey 4-1BB [12],0.485 nM
same,Maximum MFI,cynomolgus monkey 4-1BB [12],11000 MFI
same,EC50,cynomolgus monkey 4-1BB [13],0.929 nM
same,EC50,cynomolgus monkey 4-1BB [14],3.46 nM
same,Maximum MFI,cynomolgus monkey 4-1BB [14],55500 MFI
"PR001838 (antibody, human IgG1, V domains shown, anti-4-1BB HCAb, human IgG1 Fc) VH: EVQLLESGGGLVQPGGSLRLSCAASGFTFSNYAMSWFRQPPETGLKWVSSIDGSGGDTYYADSVKGRFTISRDNSKNTLYLQMNSLRAEDTAVYYCAKEGSHGTDDSHYDVDVWGQGTTVTVSS",EC50,human 4-1BB [15],0.248 nM
same,Maximum MFI,human 4-1BB [15],1770 MFI
same,EC50,cynomolgus monkey 4-1BB [4],1.09 nM
same,Maximum MFI,cynomolgus monkey 4-1BB [4],13400 MFI
same,EC50,cynomolgus monkey 4-1BB [16],0.329 nM
same,EC50,human 4-1BB [17],0.851 nM
same,Maximum MFI,human 4-1BB [17],102000 MFI
"PR004469 (antibody, human IgG1, V domains shown, anti-4-1BB HCAb, human IgG1 Fc; also called PTM variant of PR001838 (G53A)) VH: EVQLLESGGGLVQPGGSLRLSCAASGFTFSNYAMSWFRQPPETGLKWVSSIDASGGDTYYADSVKGRFTISRDNSKNTLYLQMNSLRAEDTAVYYCAKEGSHGTDDSHYDVDVWGQGTTVTVSS",EC50,human 4-1BB [18],17 nM
same,EC50,cynomolgus monkey 4-1BB [19],25.4 nM
same,EC50,human 4-1BB [20],18 nM
same,EC50,cynomolgus monkey 4-1BB [16],0.568 nM
same,EC50,human 4-1BB [17],1.29 nM
same,Maximum MFI,human 4-1BB [17],109000 MFI
"PR000448 (antibody, human IgG4 S228P, kappa, V domains shown, anti-4-1BB H2L2 recombinant fully human IgG antibody, human IgG1 / kappa) VH: QVQLQQWGAGLLKPSETLSLTCAVYGGSFSGYYWSWIRQPPGKGLEWIGEIQHSGSTDSNPSLKGRVTFSVDTSKNQFSLKLNSVTAADTAVYYCARLTGPFDYWGQGTLVTVSS VL: EIVMTQSPATLSVSPGERATLSCRASQSISSILAWYQQKPGQAPRLLIYGASTRATGIPARFSGSGSGTEFTLTISSLQSEDFAVYYCQQYYNWPLTFGGGTKVEIKR",EC50,human 4-1BB [21],0.947 nM
same,EC50,cynomolgus monkey 4-1BB [13],1.06 nM
